Test [1] deals with T1, human plasma kallikrein (human, UniProt P03952 20-390; P03952 391-638). Briefly: cell-based or functional assay.
The target of test [2] is T1, human plasma kallikrein. Briefly: Ki,app, inhibition of human pKal enzyme activity.
Test [3] deals with T1, human plasma kallikrein. Briefly: cell-based or functional assay. This is another data set of the same source.
Test [4] has as its target T1, human plasma kallikrein. Briefly: Ki,app, inhibition of human pKal enzyme activity. The source holds these as a separate data set.

Where two headings read alike, the source gives them in different places.

Usually % inhibition stands for the percentage by which the read-out fell short of the control.

T1 sequence (P03952 20-390, chain 1 of 2): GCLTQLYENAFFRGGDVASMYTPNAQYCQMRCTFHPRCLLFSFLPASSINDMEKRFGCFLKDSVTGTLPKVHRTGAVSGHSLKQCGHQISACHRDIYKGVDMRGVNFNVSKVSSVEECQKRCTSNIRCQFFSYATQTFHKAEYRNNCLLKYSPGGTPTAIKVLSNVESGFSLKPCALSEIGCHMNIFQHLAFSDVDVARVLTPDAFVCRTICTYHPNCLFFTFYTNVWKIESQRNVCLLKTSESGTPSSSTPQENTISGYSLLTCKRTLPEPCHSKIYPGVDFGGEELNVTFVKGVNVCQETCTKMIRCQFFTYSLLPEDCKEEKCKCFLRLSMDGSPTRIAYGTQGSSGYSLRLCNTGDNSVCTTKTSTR
T1 sequence (P03952 391-638, chain 2 of 2): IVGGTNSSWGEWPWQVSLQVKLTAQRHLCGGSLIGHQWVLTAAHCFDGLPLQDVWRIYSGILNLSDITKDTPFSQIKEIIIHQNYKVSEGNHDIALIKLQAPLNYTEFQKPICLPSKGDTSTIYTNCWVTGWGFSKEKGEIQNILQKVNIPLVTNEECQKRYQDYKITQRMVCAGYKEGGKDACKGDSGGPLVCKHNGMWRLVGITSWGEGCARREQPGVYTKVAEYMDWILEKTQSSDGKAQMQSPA

B1: M210-H07 (Fab, V domains shown)
VH: EVQLLESGGGLVQPGGSLRLSCAASGFTFSHYLMTWVRQAPGKGLEWVSYISPSGGHTIYADSVKGRFTISRDNSKNTLYLQMNSLRAEDTAVYYCARVARGIAARSRTRYFDQWGQGTLVTVSS
VL: DIQMTQSPGTLSLSPGERATLSCRTSQFVNSNYLAWYQQTPGQAPRLLIYGASSRATGIPDRFSGTGYGTDFTLTISRLEPEDYGTYYCQQSSRTPWTFGQGTRVEIK
notes: Tested as Fab; printed HC runs into CH1; amber q written Q
For B1, in the test with human plasma kallikrein [1], the “% inhibition at 10 nM” value worked out at 92.8%. For the same molecule, the Ki with human plasma kallikrein [2] was 0.4 nM.

B2: M200-A10 (Fab, V domains shown)
VH: EVQLLESGGGLVQPGGSLRLSCAASGFTFSHYIMMWVRQAPGKGLEWVSGIYSSGGITVYADSVKGRFTISRDNSKNTLYLQMNSLRAEDTAVYYCAYRRTGVPRRDSFDIWGQGTMVTVSS
VL: DIQMTQSPSTLSASVGDRVTITCRASQSISSWLAWYQQKPGKAPNLLIYKASTLESGVPSRFSGSGSGTEFTLTISSLQPDDFATYYCQQYNTYWTFGQGTKVEIK
notes: Tested as Fab; printed HC runs into CH1
As for B2, in the test with human plasma kallikrein [3], the “% inhibition at 10 nM” value was 94.3%. The same molecule displayed a Ki with human plasma kallikrein [4] of 0.3 nM.

B3: M196-C06 (Fab, V domains shown)
VH: EVQLLESGGGLVQPGGSLRLSCAASGFTFSIYSMHWVRQAPGKGLEWVSSIYPSRGMTWYADSVKGRFTISRDNSKNTLYLQMNSLRAEDTAVYYCAYRRTGIPRRDAFDIWGQGTMVTVSS
VL: DIQMTQSPSTLSASVGDRVTITCRASQSISSWLAWYQQKPGKAPNLLIYKASTLESGVPSRFSGSGSGTEFTLTISSLQPDDFATYYCQQYNTYWTFGQGTKVEIK
notes: as for B2
Consider B3, for which, in the test with human plasma kallikrein [3], the “% inhibition at 10 nM” value was 97.2%. The molecule further had a Ki with human plasma kallikrein [4] of 0.1 nM.

B4: M198-D12 (Fab, V domains shown)
VH: EVQLLESGGGLVQPGGSLRLSCAASGFTFSLYVMYWVRQAPGKGLEWVSYIVPSGGPTAYADSVKGRFTISRDNSKNTLYLQMNSLRAEDTAVYYCAYRRTGIPRRDAFDIWGQGTMVTVSS
VL: DIQMTQSPSTLSASVGDRVTITCRASQSISSWLAWYQQKPGKAPNLLIYKASTLESGVPSRFSGSGSGTEFTLTISSLQPDDFATYYCQQYNTYWTFGQGTKVEIK
notes: as for B2
Consider B4, for which, in the test with human plasma kallikrein [3], the “% inhibition at 10 nM” value came to 63.5%. The Ki with human plasma kallikrein [4] amounted to 0.7 nM.

B5: M199-A08 (Fab, V domains shown)
VH: EVQLLESGGGLVQPGGSLRLSCAASGFTFSHYIMMWVRQAPGKGLEWVSGIYSSGGITVYADSVKGRFTISRDNSKNTLYLQMNSLRAEDTAVYYCAYRRIGVPRRDEFDIWGQGTMVTVSS
VL: DIQMTQSPSTLSASVGDRVTITCRASQSISSWLAWYQQKPGKAPNLLIYKASTLESGVPSRFSGSGSGTEFTLTISSLQPDDFATYYCQQYNTYWTFGQGTKVEIK
Turning to B5, in the test with human plasma kallikrein [3], the “% inhibition at 10 nM” value came out at 96.4%. In addition, the Ki in the test with human plasma kallikrein [4] came out at 0.06 nM.

B6: M198-F09 (Fab, V domains shown)
VH: EVQLLESGGGLVQPGGSLRLSCAASGFTFSVYNMHWVRQAPGKGLEWVSSIYPSGGMTYYADSVKGRFTISRDNSKNTLYLQMNSLRAEDTAVYYCAYRRTGIPRRDAFDIWGQGTMVTVSS
VL: DIQMTQSPSTLSASVGDRVTITCRASQSISSWLAWYQQKPGKAPNLLIYKASTLESGVPSRFSGSGSGTEFTLTISSLQPDDFATYYCQQYNTYWTFGQGTKVEIK
notes: as for B2
For B6, the “% inhibition at 10 nM” value with human plasma kallikrein [3] turned out to be 96.9%. Further, the Ki in the test with human plasma kallikrein [4] is 0.2 nM.

B7: M202-C01 (Fab, V domains shown)
VH: EVQLLESGGGLVQPGGSLRLSCAASGFTFSHYIMMWVRQAPGKGLEWVSGIYSSGGITVYADSVKGRFTISRDNSKNTLYLQMNSLRAEDTAVYYCAYRRTGVPRWDDFDIWGQGTMVTVSS
VL: DIQMTQSPSTLSASVGDRVTITCRASQSISSWLAWYQQKPGKAPNLLIYKASTLESGVPSRFSGSGSGTEFTLTISSLQPDDFATYYCQQYNTYWTFGQGTKVEIK
notes: as for B2
For the molecule B7, the “% inhibition at 10 nM” value with human plasma kallikrein [3] was 96.3%. Further, the Ki with human plasma kallikrein [4] amounted to 0.1 nM.

B8: M198-A06 (Fab, V domains shown)
VH: EVQLLESGGGLVQPGGSLRLSCAASGFTFSIYSMHWVRQAPGKGLEWVSSIYSSGGPTKYADSVKGRFTISRDNSKNTLYLQMNSLRAEDTAVYYCAYRRTGIPRRDAFDIWGQGTMVTVSS
VL: DIQMTQSPSTLSASVGDRVTITCRASQSISSWLAWYQQKPGKAPNLLIYKASTLESGVPSRFSGSGSGTEFTLTISSLQPDDFATYYCQQYNTYWTFGQGTKVEIK
notes: as for B2
Turning to B8, the “% inhibition at 10 nM” value in the test with human plasma kallikrein [3] is 96.1%. Moreover, in the test with human plasma kallikrein [4], the Ki was 0.4 nM.

B9: M202-A12 (Fab, V domains shown)
VH: EVQLLESGGGLVQPGGSLRLSCAASGFTFSHYIMMWVRQAPGKGLEWVSGIYSSGGITVYADSVKGRFTISRDNSKNTLYLQMNSLRAEDTAVYYCAYQRTGVPRRDSFNIWGQGTMVTVSS
VL: DIQMTQSPSTLSASVGDRVTITCRASQSISSWLAWYQQKPGKAPNLLIYKASTLESGVPSRFSGSGSGTEFTLTISSLQPDDFATYYCQQYNTYWTFGQGTKVEIK
notes: as for B2
As for B9, in the test with human plasma kallikrein [3], the “% inhibition at 10 nM” value was determined as 97.5%. The Ki with human plasma kallikrein [4] was found to be 0.2 nM.

B10: M200-D03 (Fab, V domains shown)
VH: EVQLLESGGGLVQPGGSLRLSCAASGFTFSHYIMMWVRQAPGKGLEWVSGIYSSGGITVYADSVKGRFTISRDNSKNTLYLQMNSLRAEDTAVYYCAWRRIGVPRRDSFDMWGQGTMVTVSS
VL: DIQMTQSPSTLSASVGDRVTITCRASQSISSWLAWYQQKPGKAPNLLIYKASTLESGVPSRFSGSGSGTEFTLTISSLQPDDFATYYCQQYNTYWTFGQGTKVEIK
notes: as for B2
Regarding B10, in the test with human plasma kallikrein [3], the “% inhibition at 10 nM” value worked out at 95.9%. The molecule further showed a Ki with human plasma kallikrein [4] of 0.1 nM.

B11: M202-D09 (Fab, V domains shown)
VH: EVQLLESGGGLVQPGGSLRLSCAASGFTFSHYIMMWVRQAPGKGLEWVSGIYSSGGITVYADSVKGRFTISRDNSKNTLYLQMNSLRAEDTAVYYCAYRRIGVPRRDSFDIWGQGTMVTVSS
VL: DIQMTQSPSTLSASVGDRVTITCRASQSISSWLAWYQQKPGKAPNLLIYKASTLESGVPSRFSGSGSGTEFTLTISSLQPDDFATYYCQQYNTYWTFGQGTKVEIK
notes: as for B2
Consider B11, for which, in the test with human plasma kallikrein [3], the “% inhibition at 10 nM” value came out at 95%. Further, the Ki with human plasma kallikrein [4] turned out to be 0.4 nM.

B12: M202-H03 (Fab, V domains shown)
VH: EVQLLESGGGLVQPGGSLRLSCAASGFTFSHYIMMWVRQAPGKGLEWVSGIYSSGGITVYADSVKGRFTISRDNSKNTLYLQMNSLRAEDTAVYYCAFRRTGVPRWDDFDIWGQGTMVTVSS
VL: DIQMTQSPSTLSASVGDRVTITCRASQSISSWLAWYQQKPGKAPNLLIYKASTLESGVPSRFSGSGSGTEFTLTISSLQPDDFATYYCQQYNTYWTFGQGTKVEIK
notes: Tested as Fab; printed HC runs into CH1; Same CDRs as M202-C01, differs at the residue before HV-CDR3 (F for Y)
For the molecule B12, the “% inhibition at 10 nM” value in the test with human plasma kallikrein [3] was 95.7%. Also, the Ki with human plasma kallikrein [4] was 0.1 nM.

B13: M201-A07 (Fab, V domains shown)
VH: EVQLLESGGGLVQPGGSLRLSCAASGFTFSHYIMMWVRQAPGKGLEWVSGIYSSGGITVYADSVKGRFTISRDNSKNTLYLQMNSLRAEDTAVYYCAYRRTGVPRRDEFDIWGQGTMVTVSS
VL: DIQMTQSPSTLSASVGDRVTITCRASQSISSWLAWYQQKPGKAPNLLIYKASTLESGVPSRFSGSGSGTEFTLTISSLQPDDFATYYCQQYNTYWTFGQGTKVEIK
notes: as for B2
Consider B13, for which, in the test with human plasma kallikrein [3], the “% inhibition at 10 nM” value is 95.7%. Besides, the Ki with human plasma kallikrein [4] was 0.1 nM.

B14: M196-D12 (Fab, V domains shown)
VH: EVQLLESGGGLVQPGGSLRLSCAASGFTFSRYSMRWVRQAPGKGLEWVSVIYPSGGQTYYADSVKGRFTISRDNSKNTLYLQMNSLRAEDTAVYYCAYRRTGIPRRDAFDIWGQGTMVTVSS
VL: DIQMTQSPSTLSASVGDRVTITCRASQSISSWLAWYQQKPGKAPNLLIYKASTLESGVPSRFSGSGSGTEFTLTISSLQPDDFATYYCQQYNTYWTFGQGTKVEIK
notes: as for B2
With B14, in the test with human plasma kallikrein [3], the “% inhibition at 10 nM” value was 94.1%. The Ki with human plasma kallikrein [4] turned out to be 0.2 nM.

B15: M202-C09 (Fab, V domains shown)
VH: EVQLLESGGGLVQPGGSLRLSCAASGFTFSHYIMMWVRQAPGKGLEWVSGIYSSGGITVYADSVKGRFTISRDNSKNTLYLQMNSLRAEDTAVYYCAYRRIGVPRRDDFDIWGQGTMVTVSS
VL: DIQMTQSPSTLSASVGDRVTITCRASQSISSWLAWYQQKPGKAPNLLIYKASTLESGVPSRFSGSGSGTEFTLTISSLQPDDFATYYCQQYNTYWTFGQGTKVEIK
notes: as for B2
On to B15, for which, in the test with human plasma kallikrein [3], the “% inhibition at 10 nM” value came out at 92.3%. For the same molecule, the Ki with human plasma kallikrein [4] was 0.3 nM.

B16: M202-B03 (Fab, V domains shown)
VH: EVQLLESGGGLVQPGGSLRLSCAASGFTFSHYIMMWVRQAPGKGLEWVSGIYSSGGITVYADSVKGRFTISRDNSKNTLYLQMNSLRAEDTAVYYCAYRRTGVPRRDDFDIWGQGTMVTVSS
VL: DIQMTQSPSTLSASVGDRVTITCRASQSISSWLAWYQQKPGKAPNLLIYKASTLESGVPSRFSGSGSGTEFTLTISSLQPDDFATYYCQQYNTYWTFGQGTKVEIK
notes: as for B2
Consider B16, for which, in the test with human plasma kallikrein [3], the “% inhibition at 10 nM” value worked out at 93.1%. In addition, the Ki with human plasma kallikrein [4] was determined as 0.3 nM.

B17: M197-A09 (Fab, V domains shown)
VH: EVQLLESGGGLVQPGGSLRLSCAASGFTFSVYNMHWVRQAPGKGLEWVSSIYPSGGMTTYADSVKGRFTISRDNSKNTLYLQMNSLRAEDTAVYYCAYRRTGIPRRDAFDIWGQGTMVTVSS
VL: DIQMTQSPSTLSASVGDRVTITCRASQSISSWLAWYQQKPGKAPNLLIYKASTLESGVPSRFSGSGSGTEFTLTISSLQPDDFATYYCQQYNTYWTFGQGTKVEIK
notes: as for B2
Take B17: the “% inhibition at 10 nM” value in the test with human plasma kallikrein [3] came to 94.9%. The Ki with human plasma kallikrein [4] was 0.6 nM.

The values are drawn from US9266964.
